Assay: label from the status in PepcDB records

**Q.** With “MAETAAGVGRFKTNYAVERKIEPFYKGGKAQLDQTGQHLFCVCGTRVNILEVASGAVLRSLEQEDQEDITAFDLSPDNEVLVTASRALLLAQWAWQEGSVTRLSKAIHTAPVATMAFDPTSTLLATGGCDGAVRVWDIVRHYGTHHFRGSPGVVHLVAFHPDPTRLLLFSSATDAAIRVWSLQDRSCLAVLTAHYSAVTSLAFSADGHTMLSSGRDKICIIWDLQSCQATRTVPVFESVEAAVLLPEEPVSQLGVKSPGLYFLTAGDQGTLRVWEAASGQCVYTQAQPPGPGQELTHCTLAHTAGVVLTATADHNLLLYEARSLRLQKQFAGYSEEVLDVRFLGPEDSHVVVASNSPCLKVFELQTSACQILHGHTDIVLALDVFRKGWLFASCAKDQSVRIWRMNKAGQVMCVAQGSGHTHSVGTVCCSRLKESFLVTGSQDCTVKLWPLPKALLSKNTAPDNGPILLQAQTTQRCHDKDINSVAIAPNDKLLATGSQDRTAKLWALPQCQLLGVFSGHRRGLWCVQFSPMDQVLATASADGTIKLWALQDFSCLKTFEGHDASVLKVAFVSRGTQLLSSGSDGLVKLWTIKNNECVRTLDAHEDKVWGLHCSRLDDHALTGASDSRVILWKDVTEAEQAEEQARQEEQVVRQQELDNLLHEKRYLRALGLAISLDRPHTVLTVIQAIRRDPEACEKLEATMLRLRRDQKEALLRFCVTWNTNSRHCHEAQAVLGVLLRREAPEELLAYEGVRAALEALLPYTERHFQRLSRTLQAAAFLDFLWHNMKLPVPAAAPTPWETHKGALP” as the sequence, how does the protein production read?
**A.** failed

**Q.** With “MAETSIEWTDVTWNPVAGCTVLTAGCTNCYAMRMAARLEAMGVEKYAGLTRKSGGRAKWTGRIFLDRKALSIPASWSKPRRVFVNSMSDLFHSDVPTDFISDVWKVMAQTPRHTYQILTKRPDRMVEIVPGLAKLRNVWLGTSVEDARVIYRIDKLRQVPAAVRFVSFEPLIGSVSGAGLRNIHWAIVGGESGPKARSMDPAWVDEIESMCRDQGAAFFFKQWGGKNKKAAGRTLNGRLYDEMPAPSMP” as the sequence, how does the protein production read?
**A.** failed

**Q.** For “MAEVLVYVDHVDGAVRKPTLELLTLARRIGEPVALALGSGAENTAAALAEHGAGKVLTHDAAEYADYLVVPKVDALQAAYEAVSPAAVLIPSSAEGKEIAARLAVRIGSGIITDAVDLEAGDEGPVATQSAFAASFTTKSRVSKGTPVITVKPNSAPVEAAPAAGAVEALSVSFSDKATGTKVTGRTPRESTGRPELTEAAIVVSGGRGVNGAENFAIIEALADSLGAAVGASRAAVDAGWYPHSNQVGQTGKAVSPQLYIASGISGAIQHRAGMQTSKTIVAINKDAEAPIFDLVDYGVVGDLFDVVPQLTDEVKTRKG”, which protein production is on record?
**A.** failed

**Q.** For “MAEVTGVRALTGAALDAALEDVARLRIAVFRAWPYLYDGDLDYERDYLQAYRNSDRAIVVGAFDGDRLIGASTGMPLADHADDFAAAFADSGLALDQVFYCAESVLLPDYRGHGVGHRFFDLREGHARALGFAKCAFCGVQRPADHPLKPDSYRPLDAFWRARGYEKLPGAVAHFSWKDLDQENETDKPLQFWIRDL”, which protein production is on record?
**A.** failed

**Q.** For “MAFTESDVYNNTAFFEQYMKRRYRENSPNESIEKPVFFQLIGHVQGKQILDLGCGDAKFGAELLEKGCYSYTGIEGSELMYEKAKKQLENKNGSVHFLNLKDYTYPSSTFDLVTSRLALHYIEHLDTIFQNVFQTLKTNGTFTFSVQHPVITSSFESLQTSGKRTIWLVDDYFKLGKRVEPWIDQEVIKYHRTTEEYFTLLQQAGFTITSLKEATPNPTYFQDEEEYKRRLRIPLFLLFSCTK”, which protein production is on record?
**A.** failed

**Q.** With “MAGALITASAACAEDAPDFRLDLDTGGHTARIARLAFTPDGEDIVSASDDKTIRIWDWQSGVTLRTIRGYLGNGSDGKIFAVSVSPDGKTIAAGGYFGAGLGDKPPYGDIRLFDFATGKMKAVLRAADYATYDLAFSPDGKTLAAGGGDGMVYLWRLDDKSATGWTLDKKLDADSWHIDKLAFAAAGTRLAATTTDNGIRLWDVAKGEEIALPDEAEPLRDVSVLALAISQDGSLFATGSKDGQVQLWRAADGTLVHAMPKQDFLIGSLTFAKGSRLVASCGYRCADKHRSIVWNTDSGEKLLDYSGHDGTVYASAANADGSLVATAGGTRNAIQVWDPATGERKALLQGVGEPVTAIGIDAANGIIAWGNTNPCPERVACPEQLGALDKRLELPTTERFFDDPQPLTEPGSFARAAQSDGEWSLHATKGGKDALENAVLEIANGGKVVRSIENDATNGFAHSAFTLIDNGLGLITGGNDGTLLEYKAATARVSGEFTGHTGEINAMAASEKAGLLVTGSADQTLRLWNLKTHELIVSMFFAGPQWIAWMPQGYYYSSDEGDKLIGWHVNQGRDHEGRFIRAGQLKKYLWSPEMVRRAIILRSAKQAVKEMRPGVDNELQKLLQRKPPEFGVRLADDQSKVRDGYVAVEITGAKEAGTDVAGFSILSNSRNVGDIATRSAEGDKTTVEVPVENGQNTIRITGTNEYGYLTERSVTALARKTEKAEAKGKLYVAVIGVDKYPFLTDACSGHACDLRYPVDDATEFLEVVAQKSAPLFSSMETLVLVNREALDESPDKAKQTYTVASADNIMEPDSHTIDDQLADFLDRPGEHDTTIVFVAGHGINIDEDYYFIPTDGRKQDADRWKRSSLVDWGDIQKSVERAKGMRFMLLDTCHAANAFNPRLEKDAQDARIVVFSATAANNTAAELPELGHGVFTYSILEGLRGKARTSDGGITLFGLADFISHEVVRLTASKQKPFYYVGGVENIVLAEP” as the sequence, how does the protein production read?
**A.** failed

**Q.** For “MAGAMRKMAVYLGLVEDDGYDGRGFDPDDDFEPELDPEPERDHRRHEPAHQSHGAHQSQRDEEVRVVQPPAQREPMPRAASLAAESSRPARIAPVASITQERASLEKSAPVIMPKVVSEREPYRITTLHPRTYNEARTIGEHFREGTPVIMNLTEMDDTDAKRLVDFAAGLVFGLHGSIERVTQKVFLLSPANVDVTAEDKARIAEGGFFNQSLEHHHHHH”, which protein production is on record?
**A.** failed

**Q.** For “MAGASVAATTLKGDTSLLAGGAIRGAINAFGKDKKLKTQLASSGKLYGKYAKAASKIENLVLGGENISLVVDPP”, which protein production is on record?
**A.** failed

**Q.** For “MAGCGANDTSSTKEKASSEKSGVTKEITASVNKMETIISKLNDSVEKGDQKEIEKKGKELNSYWLSFENDIRSDYPFEYTEIEKHLQPIYTEAQKDKPDAGKIKTESESLKASLEDLTEAKKSGKKASDQLAKAADEYKGYVKEQSDQLVKATEAFTGAVKSGDIEKSKTLYAKARVYYERIEPIAESLGDLDPKIDARENDVEEGDKWTGFHKLEKAIWKDQDISGEKATADQLLKDVKELDGSIQSLKLTPEQIVAGAMELLNEAGISKITGEEERYSRIDLVDLMANVEGSEAVYQTVKSALVKDHSDLTEKLDTEFSEFEVLMAKYKTNDQSYTSYDKLSEKQIRELSTKLTTLSETMSKIANVLLEHHHHHH”, which protein production is on record?
**A.** not failed

**Q.** With “MAGDVEGFCSSIHDTSVSAGFRALYEEGLLLDVTLVIEDHQFQAHKALLATQSDYFRIMFTADMRERDQDKIHLKGLTATGFSHVLQFMYYGTIELSMNTVHEILQAAMYVQLIEVVKFCCSFLLAKICLENCAEIMRLLDDFGVNIEGVREKLDAFLLDNFVPLMSRPDFLSYLSFEKLMSYLDNDHLSRFPEIELYEAVQSWLRHDRRRWRHTDTIIQNIRFCLMTPSSVFEKVGTFESDRQDSSI” as the sequence, how does the protein production read?
**A.** failed

**Q.** With “MAGDYHRGEMDIQEQAATYDAFGKMTKWGSLAISVLLLFFTLLFCTSAGFIGSAIASIVLLVLGVVLLKEKPTQSH” as the sequence, how does the protein production read?
**A.** failed

**Q.** Which protein production does the source give for “MAGENSDNEPSSPASPSSAGFNTDQLPISTSQNSENFSDEEEAAVDTQVIRDEPDEAEDEEEEEGEDLFNDTFMNDYRKMDENDQYESNGIDDSVDDERDLGQAMLDRRAADADLDARENRLANRKLPHLLHDNDSDDWNYRPSKRSRTTVPPRGNGGDPDGNPPSSPGVSQPDISMTDQTDDYQDEDDNDDEAEFEMYRIQGTLREWVMRDEVRRFIAKKFKDFLLTYVKPKNENGDIEYVPNKCSLEIDYKEFIHVHPNIAIWLADAPQPVLEVMEEVSEKVIFDLHPNYKNIHTKIYVRVTNLPVNDQIRNIRQIHLNTMIRIGGVVTRRSGVFPQLQQVKYDCNKCGAVLGPFFQNSYSEVKVGSCSECQSKGPFTVNVEQTIYRNYQKLTIQESPGTVPAGRLPRHKEVILLNDLIDCARPGEEIEVTGIYTNNFDLSLNTKNGFPVFATVVEANYVTKKQDLFSAYKLTQEDKTQIEELSKDPRIVERIIKSIAPSIYGHEDIKTALALAMFGGQEKNIKGKHRLRGDINVLLLGDPGTAKSQFLKYVEKTGQRAVYTTGKGASAVGLTAAVHKDPVTREWTLEGGALVLADRGICLIDEFDKMNDQDRVSIHEAMEQQSISISKAGIVTSLQARCSVIAAANPVGGRYDSSKSFAQNVELTDPILSRFDILCVVKDVVDPVTDEMLAEFVVNSHFKSQPKGGKMEDSDPEDGIQGSSGSTDPEVLPQNLLKKYLTYSKLYVFPKLGELDAKKLETVYANLRRESMNGQGVSIATRHLESMIRMSEAHARMHLRQYVTEEDVNMAIRVLLDSFISTQKFGVQRTLRESFKRYITYKKDFNSLLLVLLKELVKNALKFEEIISGSNSGLPTIEVKIEELQTKAKEYDIADLRPFFSSTDFSKAHFELDHGRGMIKCPKRLITW” here?
**A.** failed

**Q.** With “MAGFMKNAMSYLGMSDVVDDEDDYIEEDEEQKPASKSAFDSDHTVTPLASTTAPAASSTTKPFPGGRVNRITTIHPKSYEDAQLVGRALRDGVPVVLNLTGVAEAVAYRIVDFSAGVVFGVRGSLERVTPRVFLLSPAQVNIKVEEPTKPASAHDLFADLEHHHHHH” as the sequence, how does the protein production read?
**A.** failed

**Q.** With “MAGFVPLRWPISRMSSAVPRYIVGIDLGTTHTVVSYADGGDPSRIEPLFLEQLVAPGQVAGRPLLPSVRYHPATGELAEADTALPWPVEETAPGCRPVIGEFARQLGSRSRGRLVASAKSWLCHTGVDRTADILPWGAPDEVPKVSPVEASASFLRHVRCAWNHRFPAHPLETQDVIVTIPASFDDAARALTVEAARRAGLANVRLLEEPQAACYDFLWTYRGRLAETLEGVNLLLVCDVGGGTTDFTLIRVDAGGSEPELERIAVGNHLMLGGDNIDLTLAHRLEPRLTGAERSLSATDLILLAEQCRRAKETLLAEQGPESVTVTLLGKGGGLIGGARSVELSRHEVLEVVLDGFFPRVGADAVPERRSGVVEFGLPYAADPAITRHAAAFLIRHRNDAGGAAPDALLLNGGVFHSPVIAGRMAEVVGSWCGRTPVMLRNPRPDQAVAFGAVAFGLSRRGLAVRRIGGGSARAYYLLVGDANERSRRGVCILPRGAAEGQEWTVERRNFLLSVGRPVRFHVFSSTVDSGHAPGDLAVLDEAGFGELPPLAVALQAQEQGDVEVRLAARLTAIGTLQLQCVAVGDPEQRWDLELQLRGGGPRPTASASLHPRAAEAQEHIGLIFGKKTRQFGPKAVKTLRNDLEKILGKREDWDTALCRELYAALLEGAPHRRRSADHERLWLSLAGYCLRPGFGAPLDDWRVGQVWNLYSQGLQFVNEAQNWSEWWIVWRRIAGGLRAEAQQRLFADVAGFIDPVRARRGNAEALAKKRAFEDMVRLAASLERLSAGDKTMLGGWLVQRLDKAPDSAELWWALGRVGARAPFHGSAHNLVAREVVEDWVELALQRDWKRQGFVAFAATLLARLTGDRERDLDATLRNRVAEKLVASSAPEIWLELVTEVRGLDASDEKRIFGEGLPPGLRLVDSAWGALEHHHHHH” as the sequence, how does the protein production read?
**A.** failed

— a protein production outcome set (Wang et al. 2014)
